Data: US5753621A, “Pulmonary surfactant protein fragments” (Abbott Laboratories, priority 1995, dated 1998)
No end group written: not given here. *: point of attachment. Acm = CC(=O)NC*

Columns and labels:
Type in all cases: physicochemical
[1] = Adsorption capacity, modified Wilhelmy surface balance; details: measured after three (3) minutes spreading time; peptide 0.5 mg/ml (~2% of solids)
Description: (§1) Prior to testing for surface activity, the synthetic fragments were admixed with lipids. A lipid mixture consisting of 68% 1,2-dipalmitoyl-sn-phosphatidylcholine (DPPC), 22% egg phosphatidylglycerol (PG) and 9% palmitic acid on a weight basis was prepared by dissolving the lipids in chloroform:methanol (2:1). The required amount of peptide fragment was dissolved in methanol and heated to 60° C. for 10 minutes. The peptide solution was then added to the lipid mixture prewarmed to 45° C. for ten minutes. The samples were mixed at 45° C. by gentle swirling at 100 revolutions per minute on a Buchi rotary evaporator. The organic solvents were then evaporated at 45° C. by increasing the vacuum in 100 torr increments every five minutes until most of the solvent was removed. Final vacuum was between 150-200 torr. Following evaporation, the solids were then suspended in 10% ethanol prewarmed to 45° C. and which was prepared using deionized distilled water. The suspension was gently mixed with vortexing and placed back under vacuum at 600 torr with a repeat of the vacuum ramping process. Final vacuum for the ethanol removal was 50 torr. Following complete removal of ethanol the suspension was diluted with aqueous 0.15M NaCl at 45° C. to yield an admixture with a phospholipid concentration of 25 mg/ml. The peptide/lipid admixtures were formed at final peptide concentrations of 0.5 mg/ml (equivalent to 2% of solids concentration).
A procedure similar to that described by Notter, et al., Pediatric Res. 16, 515-519 (1982) was employed to determine the absorption rate in the absence of diffusion resistance. The modified Wilhelmy surface balance as described above was used. However, instead of using a Langmuir trough, a round Teflon dish (5.1 cm diameter) was employed. The subphase, 70 ml of 0.15M NaCl, was allowed to equilibrate to 37° C. in the incubator and was continuously stirred with a Teflon coated magnetic stirrer. An aliquot of the peptide/lipid fragment admixture containing 5 mg of total phospholipid was dispersed in 10 ml of 0.15M NaCl by vortexing for 10 seconds. This dispersion was then added to the saline subphase. Surface tension lowering was monitored using a strip chart recorder connected to the electro-balance output.

[2] = Dynamic surface tension versus compressed surface area, modified Wilhelmy Surface Balance (Langmuir Trough); details: peptide 0.5 mg/ml (~2% of solids) in DPPC:PG:PA 68:22:9; 675 ug phospholipid on 445 sq. cm trough; recorded during seven complete cycles
Description: as §1
The dynamic surface tension lowering properties of the peptide/lipid admixtures were studied using a modified Wilhelmy Surface Balance (Langmuir Trough). The instrument consists of an all Teflon trough and movable Teflon ribbon (dam) barrier system which completely contains and defines a variable surface area. Surface area was varied through the use of a constant rate reversible 3-phase motor to drive the Teflon barrier. A Cahn 2000 electrobalance (Cahn Instruments, Cerittos, Calif.) with a sandblasted 1 cm platinum plate and stainless steel hangdown wire was employed to determine the surface tension at the liquid-air interface. The entire apparatus was situated in a thermostated incubator set at 45° C. Surface area-surface tension measurements were made by adding 950 ml of 0.15M NaCl to the trough. Subphase temperature was controlled during the measurements at 36°-38° C.
For each experiment 27 ul of peptide/lipid admixture was applied in a random array of 13 droplets to the surface of the temperature controlled subphase and allowed to spread spontaneously for 3 minutes. (The 27 ul application corresponds to 675 ug of phospholipid). The trough surface area was then cycled from a maximum (445 sq. cm) to a minimum (178 sq. cm) surface area and back to maximum at a cycling rate of 3 cycles/min (compression ratio 2.5:1). The dynamic surface tension versus surface area was recorded for 7 complete compression-expansion cycles for each application.

[3] = Relative surface activity by dilution studies on the modified Wilhelmy Balance-Langmuir Trough; details: for Mean Minimum Surface Tension, relative peptide concentration 1/2: 1/2 dilution of equimolar stock with lipid mixture; for Mean Minimum Surface Tension, relative peptide concentration 1/2 / Mean Minimum Surface Tension, relative peptide concentration 1/4 / Mean Minimum Surface Tension, relative peptide concentration 1/8 / Mean Minimum Surface Tension, relative peptide concentration 1/16 / Mean Minimum Surface Tension, relative peptide concentration Equimolar / Mean Minimum Surface Tension, relative peptide concentration 2%: 675 ug phospholipid; for Mean Minimum Surface Tension, relative peptide concentration 1/4: 1/4 dilution of equimolar stock with lipid mixture; for Mean Minimum Surface Tension, relative peptide concentration 1/8: 1/8 dilution of equimolar stock with lipid mixture; for Mean Minimum Surface Tension, relative peptide concentration 1/16: 1/16 dilution of equimolar stock with lipid mixture; for Mean Minimum Surface Tension, relative peptide concentration Equimolar: equimolar to 0.5 mg/mL SP-B(53-78); for Mean Minimum Surface Tension, relative peptide concentration Equimolar / Mean Minimum Surface Tension, relative peptide concentration 2%: 445 sq. cm trough; for Mean Minimum Surface Tension, relative peptide concentration 2%: peptide 2% of solids (0.5 mg/ml); for surface activity (in words): summary of Tables 3, 4 and 5
Description: For the purpose of this comparison "surface activity" is defined as follows: For any given peptide concentration, the admixture is required to result in a minimum dynamic surface tension of less than 10 dynes/cm for each of seven consecutive expansion/compression cycles.
Initially each of the admixtures was formulated so as to contain an equal number of moles of the individual peptide as is contained in a 0.5 mg/mL admixture of SP-B(53-78). […] Thereafter, each of these admixtures was diluted with the standard lipid mixture as described in Example 4, so as to provide doubling dilutions of the equimolar "parent" stock peptide admixture. The lipid concentration in all cases was maintained at 25 mg/ml.
Assessment of relative surface activity was conducted on the modified Wilhemy-Langmuir Surface Balance. For these studies a standard volume of 27 ul of each admixture, corresponding to a total phospholipid mass of 675 ug, was applied to the Langmuir Trough with maximum dimensions of 445 sq. cm.

[4] = Pulsating Bubble Surfactometer (PBS) surface tension; details: after 5 minutes pulsation (100 cycles); 1 mg/ml phospholipid, peptide 2% of phospholipids; 0.15M NaCl; 37° C.; 20 cycles/minute; SD in parenthesis
Description: as §1
The PBS equipment (Electronetics, Buffalo, N.Y.) used was essentially equivalent to that described in detail by G. Enhorning, J. Appld. Physiol. 43, 198-203, (1977). Recordings were made of the pressure gradient across the wall of a small air bubble, communicating with ambient air by means of a narrow chimney stack, but otherwise entirely surrounded by a 40 ul volume of the peptide/lipid admixture. The admixture concentration employed for these studies was 1 mg/ml total phospholipid (0.02 mg/ml total peptide) and the diluent was 0.15M NaCl.
Immediately prior to loading the sample chamber, the diluted samples were sonicated for 15 seconds to remove any gas nuclei.
The pressure drop across the air-water interface was measured during pulsation by a pressure transducer, and the corresponding surface tension was determined at minimum and maximum bubble size through the application of Young's law and the Laplace equation. Measurements were all made at 37° C. and the bubble pulsed at 20 cycles/minute to render respectively a maximum (1.1 mm) and a minimum (0.8 mm) bubble diameter. (This compression/expansion corresponds to a 50% change in the surface area of the air-water interface).

Row | Substance | Adsorption (equilibrium adsorption surface tension) [1] | Surface Tension Maximum [2] | Surface Tension Minimum [2] | Mean Minimum Surface Tension, relative peptide concentration 1/2 [3] | Mean Minimum Surface Tension, relative peptide concentration 1/4 [3] | Mean Minimum Surface Tension, relative peptide concentration 1/8 [3] | Mean Minimum Surface Tension, relative peptide concentration 1/16 [3] | Mean Minimum Surface Tension, relative peptide concentration Equimolar [3] | Mean Minimum Surface Tension, relative peptide concentration 2% [3] | Surface tension Maximum (maximum bubble size) [4] | Surface tension Minimum (minimum bubble size) [4] | surface activity (in words) [3]
1 | SP-B(66-78): synthesized SP-B peptide fragment, positions 66-78, 13 amino acids (LPQLVCRLVLRCS; not fully specified; cysteine pairing not given here; UniProt P07988 266-278, looked up, fragment) | 47.5 dynes/cm | 50.7 dynes/cm | 0.7 dynes/cm | 2.8 mN/m | 6.7 mN/m | 14.9 mN/m | 22.0 mN/m | 0.6 mN/m | 0.7 mN/m | 61.5 (5.4) dyne/cm | 9.4 (1.4) dyne/cm | 
2 | SP-B(58-78)diAla: SP-B positions 58-78, cysteines 71 and 77 replaced by alanine (LDTLLGRMLPQLVARLVLRAS; Pulmonary surfactant-associated protein B; UniProt P07988 258-278, looked up, variant C71A C77A) | 39.7 dynes/cm | 57.0 dynes/cm | 0.2 dynes/cm | 0.3 mN/m | 1.5 mN/m | 4.7 mN/m | 24.1 mN/m | 0.0 mN/m | 0.2 mN/m | 52.0 (3.3) dyne/cm | 7.5 (1.2) dyne/cm | unusual surface activity
3 | SP-B(53-78): replica of the 26 residue carboxyl terminal region of native human SP-B (YSVILLDTLLGRMLPQLVCRLVLRCS; Pulmonary surfactant-associated protein B; UniProt P07988 253-278, looked up, fragment) | 47.0 dynes/cm | 50.4 dynes/cm | 1.1 dynes/cm | 0.6 mN/m | 0.5 mN/m | 2.0 mN/m | 14.5 mN/m | 0.7 mN/m | 0.1 mN/m | 56.7 (2.9) dyne/cm | 1.5 (0.6) dyne/cm | 
4 | SP-B(53-78)diAcm: SP-B positions 53-78, cysteines 71 and 77 capped with S-acetamidomethyl (Acm) groups (YSVILLDTLLGRMLPQLVC(Acm)RLVLRC(Acm)S; UniProt P07988 253-278, looked up, fragment) | 47.0 dynes/cm | 49.5 dynes/cm | 0.1 dynes/cm |  |  |  |  |  | 0.1 mN/m | 54.1 (2.6) dyne/cm | 4.1 (3.1) dyne/cm | unusual surface activity
5 | SP-B(66-78)diLys: SP-B positions 66-78, cysteines 71 and 77 replaced with lysine (LPQLVKRLVLRKS; Pulmonary surfactant-associated protein B; UniProt P07988 266-278, looked up, variant C71K C77K) | 48.9 dynes/cm | 56.5 dynes/cm | 2.6 dynes/cm | 8.2 mN/m | 7.0 mN/m | 15.0 mN/m | 23.0 mN/m | 2.5 mN/m | 2.6 mN/m | 55.1 (6.6) dyne/cm | 1.8 (0.5) dyne/cm | 
6 | SP-B(69-78): synthesized SP-B peptide fragment, positions 69-78, 10 amino acids (LVCRLVLRCS; Pulmonary surfactant-associated protein B; UniProt P07988 269-278, looked up, fragment) | 56.5 dynes/cm | 65.0 dynes/cm | 6.3 dynes/cm | 12.5 mN/m | 13.8 mN/m | 12.2 mN/m |  | 13.3 mN/m | 6.3 mN/m | 64.0 (5.0) dyne/cm | 27.3 (0.5) dyne/cm | 
